Where only a bound is given, the exact number is not on record here.

From patent US20160220669A1 come the findings set out here.

Common to all, as to experiment: cell-based or functional assay
The target in assay [1] is CSF-1R of cynomolgous monocytes (cynomolgous).
Assay [2] addresses human mutant CSF-1R L301S Y969F (human) (UniProt P07333).
Assay [3] addresses human wildtype CSF-1R (full-length) (human) (UniProt P07333).

“Anti CSF-1R SC 2-4A5 (Santa Cruz Biotechnology, US) (antibody)” showed a % survival (cynomolgous monocytes with huCSF-1, 5 µg/ml antibody) in assay [1] of 31%. In assay [2], this substance came in with a Mutant CSF-1R IC30 (cell viability, CellTiterGlo, 3D culture) of 2.56 µg/mL and a Mutant CSF-1R IC50 (cell viability, CellTiterGlo, 3D culture) of 10 µg/mL. In assay [3], this substance had a % inhibition 10 µg/ml antibody concentration (BeWo cells, CSF-1 induced growth) of 39%; a wtCSF-1R IC30 (cell viability, CellTiterGlo, 3D culture) of 16.6 µg/mL; a wtCSF-1R IC50 (cell viability, CellTiterGlo, 3D culture) of 10 µg/mL.
“goat polyclonal anti-CSF-1R antibody ab10676 (abcam)” returned a Mutant CSF-1R IC30 (cell viability, CellTiterGlo, 3D culture) in assay [2] above 20 µg/mL. The wtCSF-1R IC30 (cell viability, CellTiterGlo, 3D culture) in assay [3] came to 14.2 µg/mL.
